Results as given in the supplement of paper PMC6757056.
± gives the standard deviation of the averaged measurements.

B1: library; a variant is named by its letters at N, in order (parent)
chain: GCUGUCACCGGUGCUUGGUACGUUAUAUUCAGCCGGUCUGAUGAGUCUNNNNNNAGACGAAACAGC

Assays:
(6R,S)-folinic acid [1] = variants of: B1; assay: FACS-Seq fitted mean relative fluorescence mCherry/BFP without ligand (log10 relative fluorescence); HEK293T overexpressing SLC46A1; higher = higher reporter protein expression; conditions: without (6R,S)-folinic acid; ligand present: no
Description: (§1)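 Hammerhead (sTRSV) ribozyme switch libraries with a ligand aptamer grafted on stem I and a randomized N4-6 loop II, cloned into the 3' UTR of mCherry and transiently transfected into HEK293T cells; RNA-Seq 72 h post transfection with ligand added 1 h before transfection; RNA read count / plasmid DNA read count normalized to the non-cleaving sTRSVctl (x100), log10; sequences with >100 DNA reads. FACS-Seq: lentiviral library sorted into 6 bins after 48 h ligand, log-normal fit mean of mCherry/BFP scaled to controls. Printed sequences are partial switch sequences.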

(6R,S)-folinic acid [2] = variants of: B1; assay: normalized RNA/DNA level without ligand (relative to sTRSVctl = 100) (log10 (% of sTRSVctl)); HEK293T overexpressing SLC46A1; higher = less ribozyme self-cleavage, higher mRNA level; conditions: without (6R,S)-folinic acid; ligand present: no
Description: as §1

(6R,S)-folinic acid [3] = variants of: B1; assay: FACS-Seq fitted mean relative fluorescence mCherry/BFP with ligand (log10 relative fluorescence); HEK293T overexpressing SLC46A1; ligand concentration (+) FACS-Seq: 6 mM; higher = higher reporter protein expression; conditions: with (6R,S)-folinic acid; ligand present: yes
Description: as §1

(6R,S)-folinic acid [4] = variants of: B1; assay: normalized RNA/DNA level with ligand (relative to sTRSVctl = 100) (log10 (% of sTRSVctl)); HEK293T overexpressing SLC46A1; ligand concentration (+) RNA-Seq: 6 mM; higher = less ribozyme self-cleavage, higher mRNA level; conditions: with (6R,S)-folinic acid; ligand present: yes
Description: as §1

| Variant | FACS-Seq fitted mean (log10) ((6R,S)-folinic acid [1]) | normalized RNA/DNA level without ligand (log10) ((6R,S)-folinic acid [2]) | FACS-Seq fitted mean (log10) ((6R,S)-folinic acid [3]) | normalized RNA/DNA level with ligand (log10) ((6R,S)-folinic acid [4]) |
| --- | --- | --- | --- | --- |
| AAAAAA | 0.489 ± 0.019 | 1.948 ± 0.013 | 0.43 ± 0.029 | 1.97 ± 0.036 |
| UAAAAA | 0.254 ± 0.059 | 1.9232 ± 0.0015 | 0.164 ± 0.11 | 1.98 ± 0.024 |
| CAAAAC | 0.474 ± 0.076 | 1.9999 ± 0.0015 | 0.589 ± 0.49 | 1.99 ± 0.055 |
| GAAAAC | 0.181 ± 0.013 | 1.948 ± 0.0025 | 0.078 ± 0.11 | 1.98 ± 0.034 |
| UAAAAC | 0.386 ± 0.024 | 1.973 ± 0.0055 | 0.499 ± 0.15 | 1.98 ± 0.028 |
| AAAAAC | 0.164 ± 0.051 | 1.985 ± 0.015 | -0.16 ± 0.076 | 1.99 ± 0.034 |
| GAAAAG | 0.162 ± 0.24 | 1.94 ± 0.0028 | -0.223 ± 0.13 | 2 ± 0.032 |
| UAAAAG | 0.335 ± 0.03 | 1.7583 ± 0.00058 | 0.493 ± 0.023 | 1.96 ± 0.049 |
| AAAAAG | 0.431 ± 0.18 | 1.914 ± 0.0037 | 0.605 ± 0.12 | 2 ± 0.045 |
| CAAAAU | -0.131 ± 0.018 | 1.955 ± 0.0057 | -0.505 ± 0.1 | 1.98 ± 0.032 |
| GAAAAU | 0.553 ± 0.091 | 1.9868 ± 0.0018 | 0.647 ± 0.21 | 2.02 ± 0.022 |
| UAAAAU | 0.0871 ± 0.034 | 1.941 ± 0.016 | 0.075 ± 0.078 | 1.97 ± 0.036 |
| AAAAAU | 0.39 ± 0.039 | 1.944 ± 0.011 | 0.512 ± 0.13 | 1.99 ± 0.029 |
| AAAACA | 0.359 ± 0.036 | 1.988 ± 0.0088 | 0.304 ± 0.0079 | 2 ± 0.024 |
| CAAACC | 0.546 ± 0.013 | 2.024 ± 0.0088 | 0.377 ± 0.2 | 2.02 ± 0.038 |
| UAAACG | 0.324 ± 0.13 | 1.799 ± 0.016 | 0.717 ± 0.1 | 1.95 ± 0.032 |
| AAAACG | 0.631 ± 0.022 | 1.93 ± 0.0068 | 0.582 ± 0.16 | 1.99 ± 0.015 |
| AAAACU | 0.355 ± 0.07 | 2.024 ± 0.00081 | 0.358 ± 0.15 | 2.03 ± 0.035 |
| CAAACU | 0.433 ± 0.064 | 2.01 ± 0.027 | 0.667 ± 0.16 | 2.01 ± 0.029 |
| GAAACU | 0.175 ± 0.071 | 2.004 ± 0.0055 | 0.437 ± 0.016 | 2.001 ± 0.019 |
| GAAAGA | 0.353 ± 0.015 | 2.011 ± 0.011 | 0.607 ± 0.25 | 2.04 ± 0.024 |
| UAAAGA | 0.265 ± 0.1 | 1.88 ± 0.019 | 0.312 ± 0.088 | 1.99 ± 0.029 |
| AAAAGC | 0.477 ± 0.09 | 1.999 ± 0.011 | 0.358 ± 0.1 | 2.03 ± 0.042 |
| UAAAGC | 0.217 ± 0.12 | 1.973 ± 0.017 | 0.319 ± 0.15 | 2 ± 0.06 |

| Variant | FACS-Seq fitted mean (log10) ((6R,S)-folinic acid [1]) | normalized RNA/DNA level without ligand (log10) ((6R,S)-folinic acid [2]) | FACS-Seq fitted mean (log10) ((6R,S)-folinic acid [3]) | normalized RNA/DNA level with ligand (log10) ((6R,S)-folinic acid [4]) |
| --- | --- | --- | --- | --- |
| AAAAGG | 0.512 ± 0.12 | 1.875 ± 0.005 | 0.459 ± 0.17 | 1.98 ± 0.038 |
| GAAAGG | 0.138 ± 0.034 | 1.902 ± 0.0036 | 0.0807 ± 0.19 | 2 ± 0.021 |
| UAAAGG | 0.0807 ± 0.018 | 1.631 ± 0.0062 | 0.507 ± 0.13 | 1.94 ± 0.035 |
| UAAAGU | 0.553 ± 0.0074 | 1.886 ± 0.0062 | 0.894 ± 0.26 | 1.99 ± 0.045 |
| AAAAUA | 0.397 ± 0.014 | 1.9645 ± 0.00067 | 0.47 ± 0.066 | 2 ± 0.025 |
| GAAAUA | 0.624 ± 0.015 | 2.008 ± 0.007 | 0.26 ± 0.23 | 2.02 ± 0.038 |
| GAAAUG | 0.4312 ± 0.0042 | 1.954 ± 0.012 | 0.551 ± 0.067 | 2.03 ± 0.043 |
| UAAAUG | 0.33 ± 0.034 | 1.7477 ± 0.001 | 0.685 ± 0.3 | 1.95 ± 0.039 |
| AAAAUU | 0.432 ± 0.056 | 2.0158 ± 0.0011 | 0.29 ± 0.039 | 2.02 ± 0.031 |
| AAACAA | 0.376 ± 0.066 | 1.971 ± 0.0088 | 0.436 ± 0.009 | 1.99 ± 0.022 |
| GAACAA | 0.694 ± 0.2 | 1.976 ± 0.013 | 0.571 ± 0.25 | 2 ± 0.033 |
| UAACAA | 0.381 ± 0.053 | 1.95 ± 0.02 | 0.18 ± 0.0065 | 2 ± 0.037 |
| AAACAC | 0.222 ± 0.096 | 2.001 ± 0.01 | 0.0733 ± 0.14 | 2.01 ± 0.026 |
| UAACAC | 0.349 ± 0.11 | 2.008 ± 0.0029 | 0.223 ± 0.22 | 2.01 ± 0.046 |
| AAACAG | 0.346 ± 0.021 | 1.925 ± 0.0068 | 0.296 ± 0.11 | 1.99 ± 0.046 |
| GAACAG | 0.808 ± 0.1 | 1.959 ± 0.0099 | 0.638 ± 0.1 | 2.01 ± 0.03 |
| UAACAG | 0.325 ± 0.2 | 1.829 ± 0.015 | 0.463 ± 0.16 | 1.952 ± 0.017 |
| AAACAU | 0.298 ± 0.095 | 1.971 ± 0.0055 | 0.199 ± 0.17 | 2.01 ± 0.045 |
| AAACCA | 0.226 ± 0.23 | 2 ± 0.01 | 0.0655 ± 0.071 | 2 ± 0.03 |
| UAACCA | 0.441 ± 0.11 | 2.007 ± 0.0037 | 0.274 ± 0.073 | 1.98 ± 0.0045 |
| UAACCG | 0.215 ± 0.047 | 1.8952 ± 0.00059 | 0.522 ± 0.21 | 2.01 ± 0.028 |
| GAACCU | -0.507 ± 0.14 | 2.02 ± 0.0076 | -0.0321 ± 0.22 | 2.02 ± 0.04 |
| CAACGA | 0.682 ± 0.03 | 2.008 ± 0.0085 | 0.653 ± 0.17 | 2.005 ± 0.018 |
| GAACGA | 0.313 ± 0.13 | 1.997 ± 0.012 | 0.623 ± 0.36 | 2.031 ± 0.02 |

| Variant | FACS-Seq fitted mean (log10) ((6R,S)-folinic acid [1]) | normalized RNA/DNA level without ligand (log10) ((6R,S)-folinic acid [2]) | FACS-Seq fitted mean (log10) ((6R,S)-folinic acid [3]) | normalized RNA/DNA level with ligand (log10) ((6R,S)-folinic acid [4]) |
| --- | --- | --- | --- | --- |
| AAACGA | 0.186 ± 0.039 | 2 ± 0.018 | 0.192 ± 0.16 | 2.03 ± 0.026 |
| UAACGA | 0.256 ± 0.05 | 1.93 ± 0.0022 | 0.34 ± 0.11 | 2.01 ± 0.036 |
| GAACGC | 0.22 ± 0.11 | 1.946 ± 0.0053 | 0.118 ± 0.03 | 1.99 ± 0.022 |
| UAACGC | 0.334 ± 0.0089 | 1.993 ± 0.008 | 0.0549 ± 0.066 | 2.02 ± 0.045 |
| GAACGG | 0.0676 ± 0.01 | 1.94 ± 0.032 | 0.104 ± 0.12 | 2.018 ± 0.019 |
| AAACGG | 0.359 ± 0.076 | 1.903 ± 0.013 | 0.384 ± 0.1 | 2.006 ± 0.016 |
| UAACGG | 0.142 ± 0.02 | 1.705 ± 0.011 | 0.534 ± 0.11 | 1.95 ± 0.034 |
| AAACGU | 0.248 ± 0.096 | 1.966 ± 0.011 | 0.326 ± 0.22 | 2 ± 0.024 |
| UAACUA | 0.248 ± 0.065 | 1.98 ± 0.027 | 0.41 ± 0.11 | 2.03 ± 0.028 |
| UAACUG | 0.401 ± 0.0068 | 1.846 ± 0.015 | 0.499 ± 0.1 | 2 ± 0.024 |
| AAACUG | 0.318 ± 0.15 | 1.933 ± 0.0021 | 0.151 ± 0.091 | 2 ± 0.037 |
| UAACUU | 0.511 ± 0.0079 | 1.994 ± 0.011 | 0.408 ± 0.12 | 2 ± 0.045 |
| CAAGAA | 0.425 ± 0.21 | 1.95 ± 0.0095 | 0.427 ± 0.2 | 2 ± 0.024 |
| GAAGAA | -0.708 ± 0.014 | 1.973 ± 0.0039 | -0.827 ± 0.004 | 2.03 ± 0.04 |
| UAAGAA | 0.023 ± 0.078 | 1.882 ± 0.011 | -0.19 ± 0.37 | 1.96 ± 0.022 |
| AAAGAA | 0.282 ± 0.14 | 1.923 ± 0.011 | 0.569 ± 0.098 | 1.99 ± 0.037 |
| GAAGAC | 0.635 ± 0.035 | 1.97 ± 0.0057 | 0.574 ± 0.24 | 2.03 ± 0.025 |
| AAAGAC | 0.42 ± 0.029 | 1.98 ± 0.0069 | 0.38 ± 0.23 | 2.01 ± 0.028 |
| CAAGAG | 0.355 ± 0.047 | 1.903 ± 0.013 | 0.365 ± 0.14 | 1.98 ± 0.024 |
| GAAGAG | 0.0515 ± 0.088 | 1.837 ± 0.0055 | 0.356 ± 0.15 | 2.03 ± 0.034 |
| UAAGAG | 0.104 ± 0.05 | 1.667 ± 0.0094 | 0.3 ± 0.061 | 1.96 ± 0.038 |
| AAAGAG | 0.224 ± 0.031 | 1.617 ± 0.0032 | 0.316 ± 0.22 | 1.93 ± 0.049 |
| GAAGAU | 0.124 ± 0.065 | 1.968 ± 0.0035 | 0.379 ± 0.13 | 2.03 ± 0.032 |
| AAAGAU | 0.433 ± 0.025 | 1.9288 ± 0.0013 | 0.44 ± 0.027 | 2 ± 0.032 |
